Measurements as given in patent US20050271651A1, “Inhibition of bright function as a treatment for excessive immunoglobulin production” (Oklahoma Medical Research Foundation, published 2005).
Substitutions are numbered along the chain they refer to. Numbers in names are those of the source.

T1: mouse Bright, native (untagged) wild-type (mouse) (UniProt Q62431)
T1 sequence (looked up): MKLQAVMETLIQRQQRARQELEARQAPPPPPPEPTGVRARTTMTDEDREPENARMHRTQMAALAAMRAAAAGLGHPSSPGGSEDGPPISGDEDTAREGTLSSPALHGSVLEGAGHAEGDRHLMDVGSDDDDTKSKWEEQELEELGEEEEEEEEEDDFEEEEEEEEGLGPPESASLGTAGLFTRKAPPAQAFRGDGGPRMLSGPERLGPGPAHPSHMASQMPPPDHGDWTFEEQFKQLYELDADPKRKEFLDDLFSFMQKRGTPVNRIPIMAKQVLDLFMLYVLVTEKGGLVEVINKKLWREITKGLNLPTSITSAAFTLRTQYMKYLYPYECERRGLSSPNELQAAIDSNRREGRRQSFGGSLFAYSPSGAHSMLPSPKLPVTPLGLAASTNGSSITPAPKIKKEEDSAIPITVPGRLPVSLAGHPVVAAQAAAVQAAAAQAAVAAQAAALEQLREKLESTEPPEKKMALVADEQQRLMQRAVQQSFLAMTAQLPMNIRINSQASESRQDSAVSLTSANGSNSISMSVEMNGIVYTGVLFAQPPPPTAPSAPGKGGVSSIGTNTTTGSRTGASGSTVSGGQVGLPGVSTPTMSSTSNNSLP

T2: Bright (ARID3A/Dril1) (Homo sapiens, UniProt Q99856 SEQ:1-593)
T2 sequence: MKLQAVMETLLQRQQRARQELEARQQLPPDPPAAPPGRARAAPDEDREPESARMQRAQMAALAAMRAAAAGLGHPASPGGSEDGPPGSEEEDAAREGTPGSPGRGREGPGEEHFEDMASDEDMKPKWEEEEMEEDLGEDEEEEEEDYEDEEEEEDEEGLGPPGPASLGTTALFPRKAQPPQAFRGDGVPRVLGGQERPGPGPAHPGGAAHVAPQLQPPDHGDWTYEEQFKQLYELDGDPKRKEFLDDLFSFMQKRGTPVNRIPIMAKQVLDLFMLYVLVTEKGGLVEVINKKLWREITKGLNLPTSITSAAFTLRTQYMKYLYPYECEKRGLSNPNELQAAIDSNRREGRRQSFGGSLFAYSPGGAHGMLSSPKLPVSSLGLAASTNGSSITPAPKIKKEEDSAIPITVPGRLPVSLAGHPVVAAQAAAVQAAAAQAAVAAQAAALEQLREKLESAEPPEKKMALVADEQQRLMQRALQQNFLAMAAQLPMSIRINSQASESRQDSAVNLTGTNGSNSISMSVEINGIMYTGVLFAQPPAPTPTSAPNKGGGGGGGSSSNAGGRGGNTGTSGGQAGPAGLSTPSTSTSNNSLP

B1: mouse Bright, native (untagged) wild-type (other, UniProt Q62431 1-601, looked up)
chain: T1 sequence (looked up)
notes: range 1-601; Untagged protein, tested in three forms: expressed in CHO cells, in vitro translated, or endogenous in the mouse B cell lines BCg3R-1d and M12g3Ri; Found as a dimer in solution by size exclusion chromatography; also called native Bright; wild-type Bright
B2: mouse Bright F317A, C-terminal myc-his tagged (other, UniProt Q62431 1-601, looked up)
chain: T1 sequence (looked up) with F317A
notes: range 1-601; not shown: C-terminal myc-his tag from vector pcDNA4/TO/myc-His B
B3: mouse Bright W299A, C-terminal myc-his tagged (other, UniProt Q62431 1-601, looked up)
chain: T1 sequence (looked up) with W299A
notes: as for B2
B4: mouse Bright double point mutant (W299A and Y330A), C-terminal myc-his tagged (other, UniProt Q62431 1-601, looked up)
chain: T1 sequence (looked up) with W299A, Y330A
notes: range 1-601; also called DP; DP Bright; not shown: C-terminal myc-his tag from vector pcDNA4/TO/myc-His B
B5: mouse Bright Y330A, C-terminal myc-his tagged (other, UniProt Q62431 1-601, looked up)
chain: T1 sequence (looked up) with Y330A
notes: as for B2
B6: mouse Bright REKLES mutant (REKLES at amino acids 455-460 changed to AEALEA), C-terminal myc-his tagged (other, UniProt Q62431 1-601, looked up)
chain: T1 sequence (looked up) with R455A, K457A, S460A
notes: as for B2
B7: human Bright (B cell regulator of IgH transcription) (other)
chain: T2 sequence
notes: Transcription factor; Tested as in vitro translated protein from a full-length clone, and as endogenous protein in nuclear extracts of the human cell lines CL01, K562 and 300212; also called Dril 1; DRIL1
B8: mutated Bright site competitor (dsDNA)
DNA 1: TAAGTATAAATATGTACATGAGTACACCCTCCACTTATTTATCTTA
DNA 2: TAAGATAAATAAGTGGAGGGTGTACTCATGTACATATTTATACTTA

Key:
[1] = biological target: T1, mouse Bright, native (untagged) wild-type (mouse); assay: cell-based or functional assay
[2] = biological target: mouse Bright, wild-type, C-terminal myc-his tagged (mouse) (UniProt Q62431); assay: cell-based or functional assay
[3] = biological target: the molecule itself; assay: size exclusion chromatography of nuclear extracts, western blot of fractions
Experimental: (§1) FIGS. 11A-B—Tagged Bright proteins dimerize with native Bright. (FIG. 11A) Nuclear extracts from cells expressing Bright protein were subjected to size exclusion chromatography and protein fractions were analyzed for Bright by western blotting (lower panel). Data are presented graphically relative to molecular weight standards in the upper panel and are representative of four experiments. (FIG. 11B) C-terminal myc-his tagged Bright was either singly or coexpressed in CHO cells with native Bright. […] Immunoprecipitations using anti-myc Ab (middle panel) and anti-Sp1 as an isotype control (bottom panel) were performed with each of the transfected extracts and developed with anti-Bright reagents. Arrows indicate immunoglobulin heavy chain cross-reactive with the secondary reagent. Data are representative of two separate experiments.
Column chromatography. Nuclear extracts from CHO cells transfected with the full-length Bright expression plasmid (Herrscher et al., 1995) were centrifuged at 10,000×g to remove aggregates and applied to a pre-calibrated Bio-Gel A 0.5 m size exclusion column (Bio-Rad, Hercules, Calif.) in 0.05 M Tris-HCl, pH 8.0, 0.1 M KCl and 20% glycerol according to the manufacturer's directions. The column was calibrated before and after use with Bio-Rad gel filtration standards to ensure maintenance of column integrity. […]

[4] = biological target: B1; assay: co-expression in CHO cells, anti-myc immunoprecipitation, anti-Bright blot
Experimental: as §1
To determine if the mutated proteins formed heterodimers with wild-type Bright, his-myc-tagged mutant forms of Bright were co-expressed in CHO cells with native wild-type Bright. Tagged proteins were distinguished from native Bright by the slight size differences in western blots (FIG. 11B) and were confirmed using anti-tag antibodies (not shown). Anti-myc antibodies were used to immunoprecipitate the tagged proteins and blots were developed with anti-Bright (FIG. 11B). In every case, a lower molecular weight band was detected that reflected the presence of native Bright.

[5] = biological target: the molecule itself; assay: size exclusion chromatography (not shown)
[6] = biological target: human Btk, endogenous in the B cell lines CL01 and 300212 (human, UniProt Q06187 2-659); assay: EMSA supershift with anti-Btk, nuclear extracts of CL01 and 300212 cells
Sequence of human Btk, endogenous in the B cell lines CL01 and 300212 (Q06187 2-659 limits assumed): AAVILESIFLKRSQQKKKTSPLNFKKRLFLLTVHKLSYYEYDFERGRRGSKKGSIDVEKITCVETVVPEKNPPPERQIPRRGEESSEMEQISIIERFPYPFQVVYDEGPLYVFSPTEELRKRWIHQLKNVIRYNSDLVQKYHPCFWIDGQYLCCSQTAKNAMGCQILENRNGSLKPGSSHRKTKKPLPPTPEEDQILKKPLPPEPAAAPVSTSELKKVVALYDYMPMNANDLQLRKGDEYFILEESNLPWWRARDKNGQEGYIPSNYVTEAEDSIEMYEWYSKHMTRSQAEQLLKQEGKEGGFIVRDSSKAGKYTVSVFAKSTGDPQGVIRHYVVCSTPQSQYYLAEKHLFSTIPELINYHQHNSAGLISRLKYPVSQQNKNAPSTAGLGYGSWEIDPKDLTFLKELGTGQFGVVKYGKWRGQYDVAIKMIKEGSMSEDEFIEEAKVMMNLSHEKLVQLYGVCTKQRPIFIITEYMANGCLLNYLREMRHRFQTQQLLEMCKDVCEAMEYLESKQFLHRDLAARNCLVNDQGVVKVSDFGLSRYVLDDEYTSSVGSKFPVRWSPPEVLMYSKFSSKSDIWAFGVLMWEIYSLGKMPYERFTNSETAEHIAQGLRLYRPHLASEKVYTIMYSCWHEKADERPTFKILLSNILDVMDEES
Experimental: FIG. 7—Btk associates with Bright in a subset of DNA-bound complexes. Mobility-shift assays were performed with nuclear extracts from two B cell lines (CL01 and 300212) and the T cell line, Molt-4. Anti-sera to CDP or the pleckstrin domain of Btk was added as in FIG. 2A-D. In some cases the anti-Btk sera was diluted 1:10 with PBS (0.1) prior to addition. Data are representative of six experiments.
Electrophoretic mobility shift assays (EMSAs). Nuclear extracts were prepared by hypotonic lysis, protein concentrations were quantified with Bradford reagents (BioRad, Richmond, Calif.), and EMSAs were performed in 4% nondenaturing acrylamide gels after incubation for 15 min at 37° C. with gamma-³²P-labeled probe, as previously described (Buchanan et al., 1995). The prototypic Bright binding site (a 150 base pair Bam HI-Fok I fragment called bf150) from the S107 V1 5′ flanking sequence (Webb et al., 1991) was used as a probe. In some instances, antibodies were added 5 min before incubation with the probe. […] A double-stranded oligo containing the 45 base pair foot-printed Bright binding site within bf150 described in Webb et al. (1991) was used as a specific competitor in increasing concentrations and a mutated version of that oligonucleotide containing the double-stranded sequence corresponding to 5′-[…]-3′ (SEQ ID NO:6) was used as a non-specific competitor. […]

Bright (ARID3A/Dril1) = biological target: T2, Bright (ARID3A/Dril1); assay: competition; nonspecific competitor, recombinant Bright; conditions: tags: TNT rabbit reticulocyte lysate
Experimental: Electrophoretic mobility shift assays (EMSAs). Nuclear extracts were prepared by hypotonic lysis, protein concentrations were quantified with Bradford reagents (BioRad, Richmond, Calif.), and EMSAs were performed in 4% nondenaturing acrylamide gels after incubation for 15 min at 37° C. with gamma-³²P-labeled probe, as previously described (Buchanan et al., 1995). The prototypic Bright binding site (a 150 base pair Bam HI-Fok I fragment called bf150) from the S107 V1 5′ flanking sequence (Webb et al., 1991) was used as a probe. In some instances, antibodies were added 5 min before incubation with the probe. […] A double-stranded oligo containing the 45 base pair foot-printed Bright binding site within bf150 described in Webb et al. (1991) was used as a specific competitor in increasing concentrations and a mutated version of that oligonucleotide containing the double-stranded sequence corresponding to 5′-[…]-3′ (SEQ ID NO:6) was used as a non-specific competitor. Underlined nucleotides represent changes from the prototype. Competition assays were performed as previously described (Webb et al., 1991).
To confirm that the protein complexes that reacted with anti-Bright antibodies in FIG. 2D were specific for the Bright binding site, competition experiments were performed in the presence of double-stranded oligonucleotides spanning the Bright binding motif.

With “Bruton's tyrosine kinase (Btk), wild-type, ectopically expressed or recombinant (enzyme)” the Bright DNA-binding activity remaining after competitor DNA (EMSA, in vitro translated Bright plus recombinant Btk) [1] was < 50 % reduction.

Work on Btk xid mutant (R28C) (enzyme) yielded a V1 transcription relative to wild-type Btk (Real Time PCR, CHO cells) [2] of 50%.

B1: binds [3].

B2: binds [4].

B3: binds [4].

B4: binds [4].

B5: binds [4].

B6: binds [5]; binds [4].

B7: binds [6].

B8: no binding (Bright (ARID3A/Dril1)).
